Results as given in patent US20230025129A1 (KYMAB, published 2023).
Where a chain is given by its changes, count along the chain named. In names and notes the source's numbering stands. Values belong to the binder of their own block, whether it stands above or below them.

Assays:
[1] = molecular target: T1, human matriptase-2 ECD protein his tag (human, UniProt Q8IU80 78-811); test: SPR (Biacore 8K), huIgG4PE captured on anti-human Fc, MTP-2 ECD as analyte, 1:1 fit
T1 construct: also called human MTP-2 ECD; huMTP-2
T1 sequence: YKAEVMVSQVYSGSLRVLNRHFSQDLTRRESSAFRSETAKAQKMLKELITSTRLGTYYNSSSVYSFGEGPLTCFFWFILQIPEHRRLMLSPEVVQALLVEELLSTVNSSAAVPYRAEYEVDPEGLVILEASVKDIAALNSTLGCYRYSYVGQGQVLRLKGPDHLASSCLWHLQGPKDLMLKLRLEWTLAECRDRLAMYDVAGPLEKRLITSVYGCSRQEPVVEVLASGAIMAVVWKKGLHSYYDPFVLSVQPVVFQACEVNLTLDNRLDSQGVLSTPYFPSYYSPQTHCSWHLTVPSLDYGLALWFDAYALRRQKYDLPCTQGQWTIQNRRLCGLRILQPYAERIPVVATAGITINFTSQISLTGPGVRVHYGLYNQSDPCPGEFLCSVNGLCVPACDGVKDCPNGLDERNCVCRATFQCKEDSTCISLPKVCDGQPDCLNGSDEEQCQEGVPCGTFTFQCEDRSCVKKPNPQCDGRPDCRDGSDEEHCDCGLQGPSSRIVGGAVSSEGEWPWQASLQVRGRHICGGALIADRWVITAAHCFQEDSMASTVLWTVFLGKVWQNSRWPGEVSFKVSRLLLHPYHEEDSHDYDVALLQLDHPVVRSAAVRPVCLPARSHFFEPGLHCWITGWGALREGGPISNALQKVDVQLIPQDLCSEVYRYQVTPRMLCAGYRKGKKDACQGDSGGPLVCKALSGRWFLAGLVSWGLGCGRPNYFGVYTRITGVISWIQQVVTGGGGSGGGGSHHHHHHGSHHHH
Experimental: (§1) Off-rate screening was performed by surface plasmon resonance (SPR), using a Biacore 8K system (GE Healthcare). Anti-human Fc mix (˜1000 RU) were immobilised in both active and reference channels in HBS-P+ buffer (GE BR100671) pH 7.4. Anti-MTP-2 hulgG4PE antibodies were then captured for 60 sec at 10 μl/min at 1 μg/ml concentration (approximatively 35 and 50 RU were captured) only on the active channel. MTP-2 ECD protein analytes were then injected (at 100, 25, 6.25, 1.56 and 0 nM concentrations) for 120 sec (association time) at 30 μl/min and dissociation monitored for 600 sec. Multiple cycle kinetics mode was used with all 8 channels being used. Reference and background were subtracted from the sensorgrams for each antibody and data was fitted using a 1:1 interaction model in the Biacore evaluation software. Rmax, ka, kd globally fitted, RI=0.

[2] = molecular target: T2, mouse matriptase-2 ECD protein his tag (mouse, UniProt Q9DBI0 80-811); test: as above
T2 construct: aa 80-811 of Q9DBI0 with C-terminal linker and His tag; also called mouse MTP-2 ECD; moMTP-2
T2 sequence: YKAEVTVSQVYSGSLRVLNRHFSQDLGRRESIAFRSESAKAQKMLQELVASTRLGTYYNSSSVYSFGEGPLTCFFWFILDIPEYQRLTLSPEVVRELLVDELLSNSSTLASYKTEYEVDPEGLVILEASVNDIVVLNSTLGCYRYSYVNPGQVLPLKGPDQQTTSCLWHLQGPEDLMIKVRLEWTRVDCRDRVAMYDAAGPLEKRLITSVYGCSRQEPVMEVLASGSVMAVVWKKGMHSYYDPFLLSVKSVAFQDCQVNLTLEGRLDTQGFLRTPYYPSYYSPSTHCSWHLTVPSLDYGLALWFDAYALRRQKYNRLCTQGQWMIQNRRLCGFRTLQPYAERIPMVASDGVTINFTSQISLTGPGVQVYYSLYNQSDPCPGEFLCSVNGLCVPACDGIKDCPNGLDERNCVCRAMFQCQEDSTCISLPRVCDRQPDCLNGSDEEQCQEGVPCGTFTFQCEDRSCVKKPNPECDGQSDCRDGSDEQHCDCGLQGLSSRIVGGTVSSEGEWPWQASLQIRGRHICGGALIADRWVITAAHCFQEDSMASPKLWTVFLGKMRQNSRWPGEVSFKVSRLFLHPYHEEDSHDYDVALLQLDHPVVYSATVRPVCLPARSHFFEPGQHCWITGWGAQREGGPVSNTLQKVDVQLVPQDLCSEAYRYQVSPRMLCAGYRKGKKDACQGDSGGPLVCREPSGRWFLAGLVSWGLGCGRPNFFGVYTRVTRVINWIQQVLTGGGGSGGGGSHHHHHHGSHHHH
Experimental: as §1

[3] = molecular target: T1, human matriptase-2 ECD protein his tag; test: SPR, his-tagged MTP-2 ECD protein (Table W)
Experimental: as §1
(§2) NORI-011, NORI-008, NORI-003 and NORI-006 were all found to have cross-reactive binding to human, mouse, cyno and rat MTP-2 ECD proteins. […] The true KD value for NORI-008 could not be measured accurately for human or mouse MTP-2 due to a very slow off-rate.

[4] = molecular target: T2, mouse matriptase-2 ECD protein his tag; test: SPR, his-tagged MTP-2 ECD protein (Table W)
Experimental: as §1, §2

[5] = molecular target: T3, human matriptase-2 mask ECD protein his tag (human, UniProt Q8IU80 78-576); test: SPR (Table W)
T3 construct: MTP-2 ECD without the serine protease domain, with C-terminal linker and His tag; also called headless huMTP-2 ECD 78-576 aa; headless human MTP-2 ECD
T3 sequence: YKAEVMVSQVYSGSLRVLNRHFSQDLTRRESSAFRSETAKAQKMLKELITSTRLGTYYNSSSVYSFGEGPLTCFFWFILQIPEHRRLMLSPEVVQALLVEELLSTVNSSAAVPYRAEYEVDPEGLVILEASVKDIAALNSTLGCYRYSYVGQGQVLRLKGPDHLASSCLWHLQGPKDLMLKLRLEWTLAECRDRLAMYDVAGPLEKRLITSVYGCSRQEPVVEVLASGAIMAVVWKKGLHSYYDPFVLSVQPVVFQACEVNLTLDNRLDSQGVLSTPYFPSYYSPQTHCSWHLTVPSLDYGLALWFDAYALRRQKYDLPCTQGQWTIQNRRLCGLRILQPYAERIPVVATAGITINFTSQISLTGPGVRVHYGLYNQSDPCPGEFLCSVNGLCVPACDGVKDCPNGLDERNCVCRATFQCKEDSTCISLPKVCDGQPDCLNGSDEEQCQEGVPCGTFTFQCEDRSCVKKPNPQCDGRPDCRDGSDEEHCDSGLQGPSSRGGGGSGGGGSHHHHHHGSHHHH
Experimental: as §1, §2

Binding Late top conc [1]: 14.6
Kd [1]: 1.79 nM
Stoichiometry [1]: 1.05
koff [1]: 5.78e-05 s⁻¹
kon [1]: 32200 M⁻¹ s⁻¹
Binding Late top conc [2]: 7.5
Stoichiometry [2]: 1.47
kon [2]: 10500 M⁻¹ s⁻¹
B1: NORI-013 (antibody, human IgG4 S228P, lambda, V domains shown)
VH: EVQLVESGGGLIQAGRSLRLSCAASGFTFDEHVIYWVRQIPGKGLEWISSISWKSDIIAYADSVKGRFTISRDNAKNALYLQMNSLRAEDTALYYCAREKDGDFYYYYFAMDVWGQGTTVTVSS
VL: QSALTQPPSASGSPGQSVTLSCTGTSSDVGYYNYVSWYLQHPGKAPKLMIYEVSKRPSGVPDRFSGSKSANTASLTVSGLQAEDEADYYCSSYAGSNKVVFGGGTKVTVLG
notes: human IgG4PE, lambda

Binding Late top conc [1]: 10.7
Kd [1]: 1.71 nM
Stoichiometry [1]: 0.9
koff [1]: 4.6e-05 s⁻¹
kon [1]: 26900 M⁻¹ s⁻¹
Binding Late top conc [2]: 5.4
Stoichiometry [2]: 0.93
kon [2]: 12100 M⁻¹ s⁻¹
B2: NORI-014 (antibody, human IgG4 S228P, lambda, V domains shown)
VH: B1 VH with I34M, S52T
VL: B1 VL
notes: human IgG4PE, lambda

Kd [3]: 5.61 nM
Kd [4]: 9 nM
binding result [5]: no binding
B3: NORI-011 (antibody, human IgG4 S228P, lambda)
heavy: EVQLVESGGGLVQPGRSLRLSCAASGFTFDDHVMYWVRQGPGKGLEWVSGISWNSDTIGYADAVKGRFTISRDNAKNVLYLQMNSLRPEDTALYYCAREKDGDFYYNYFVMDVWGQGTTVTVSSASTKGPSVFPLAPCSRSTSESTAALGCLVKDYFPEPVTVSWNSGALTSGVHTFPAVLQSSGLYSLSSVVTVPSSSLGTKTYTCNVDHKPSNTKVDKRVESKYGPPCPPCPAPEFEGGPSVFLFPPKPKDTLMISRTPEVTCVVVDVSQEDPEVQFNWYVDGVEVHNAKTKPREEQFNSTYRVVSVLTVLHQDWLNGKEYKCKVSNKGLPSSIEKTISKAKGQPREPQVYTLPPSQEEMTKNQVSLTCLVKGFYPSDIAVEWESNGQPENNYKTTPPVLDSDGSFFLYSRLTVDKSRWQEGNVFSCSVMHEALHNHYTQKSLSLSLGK
light: QSALTQPPSASGSPGQSVTISCTGTSSDVGFYNFVSWYQQHPDKAPKVMIYEVSKRPSGVPDRFSGSKSGNTASLTVSGLQAEDEADYYCSSYAGSNKVVFGGGTKLTVLGQPKAAPSVTLFPPSSEELQANKATLVCLISDFYPGAVTVAWKADSSPVKAGVETTTPSKQSNNKYAASSYLSLTPEQWKSHRSYSCQVTHEGSTVEKTVAPTECS
notes: human IgG4PE, lambda; NORI-010 with a P124S mutation in the VH domain

Kd [3]: 2.93 nM
Kd [4]: 27 nM
binding result [5]: no binding
B4: NORI-006 (antibody, human IgG4 S228P, kappa, V domains shown)
VH: EVQLVESGGGLIKPGRSLRLSCTGSGFTFGDFGLSWFRQAPGKGLEWISFIRSKPYGGTTDYAASVKGRFTISRDDSKNVAYLQMNSLKTEDTAVYYCARNEILTGYYIFDYWGQGTLVTVSS
VL: DIQMTQSPSSLSASLGDRVTITCQASQDINNYLNWYQVQPGKAPKLLIFDASILETGVPSRFSGSGSGTDFSFTISSLQPEDIATYYCQQYDNLPLTFGGGTKVDFKR
notes: human IgG4PE, kappa

Kd [3]: 5.24 nM
Kd [4]: 28.9 nM
binding result [5]: no binding
B5: NORI-003 (antibody, human IgG4 S228P, kappa, V domains shown)
VH: EVQLVESGGGLVKPGRSLRLSCTGSGFTFGDFGMSWFRQAPGKGLEWVGFIRSKPYGGTTDYAPSVRGRFSISRDDSKGIVYLQMNSLRTEDTAVYYCSRNEILTGYYIFDYWGQGTLVTVSS
VL: B4 VL with Q27H, N30T, N34I, V38Q, Q39K, K45R, S72T, I83F, D92Y, F106I
notes: human IgG4PE, kappa; NORI-002 with the free cysteine of the VH domain mutated (printed as 'C49C')

Binding Late top conc [1]: 35.8
Kd [1]: 0.0129 nM
Stoichiometry [1]: 0.72
koff [1]: 1.47e-05 s⁻¹
kon [1]: 1.14e+06 M⁻¹ s⁻¹
Binding Late top conc [2]: 39.2
Kd [2]: 0.129 nM
Stoichiometry [2]: 0.86
koff [2]: 3.05e-05 s⁻¹
kon [2]: 237000 M⁻¹ s⁻¹
binding result [5]: no binding
B6: NORI-008 (antibody, human IgG4 S228P, kappa, V domains shown)
VH: QVQLQESGPGLVKPSETLSLTCSVSGGSVSSGRYYWTWIRQPPGKGLEWIGYISNSGNTNYNPSLKSRVTISLDTSKKQFSLSLSAVTAADTAVYYCARGFIYDYWFDPWGQGSLVTVSS
VL: DSQMTQSPSSLSASVGDRVTITCQASQDIDNYLNWYQQRPGKAPKLLIYDASKLETGVPSRFSGSGSGTDFTFTISSLQPEDFATYYCQQYGNLPITFGQGTRLDIKR
notes: human IgG4PE, kappa, in the in vitro assays; a mouse IgG1 format was used in one in vivo study only; also called NORI-008 hulgG4PE; NORI-008 IgG
